Test results: patent publication US8633250B2, “Cell repair and regeneration by suramin and related polysulfonated napthylureas” (MUSC Foundation for Research Development, priority 2006, dated 2014)

Assays:
Format in all cases: cell-based, rabbit
EGF receptor = experiment: Immunoblot of EGF receptor phosphorylation (Tyr1068) in RPTC; conditions: 50 μM suramin, 10 ng/ml EGF or both for 10 min
Description: Preparation of cell lysates and immunoblot analysis: After different treatments, RPTC were washed twice with PBS and harvested in lysis buffer (0.25 M Tris-HCl, pH 6.8, 4% SDS, 10% glycerol, 1 mg/ml bromophenol blue, and 0.5% 2-mercaptoethanol). Cells were disrupted by sonication for 15 seconds and lysates stored at −20 °C. Equal amounts of cellular protein lysate were separated on 10% polyacrylamide gels and transferred to nitrocellulose membranes. After treatment with 5% skim milk at 4 °C overnight, membranes were incubated with various antibodies for 1 hr, and then incubated with an appropriate horseradish-peroxidase conjugated secondary antibody (Amersham, Piscataway, N.J.). Bound antibodies were visualized following chemiluminescence detection on autoradiographic film.
To determine whether suramin caused EGF receptor activation, we performed immunoblot analysis using an antibody against phosphorylated tyrosine 1068 of the EGF receptor. Total EGF receptor content was measured using immunoblot analysis and an antibody that recognizes the EGF receptor independent of its phosphorylation state to control for gel loading. […] Thus, suramin induced RPTC proliferation and scattering is not through the EGF receptor.

[1] = system: renal proximal tubule cells (RPTC); experiment: RPTC outgrowth from plated renal proximal tubules (photographs); conditions: after 24 hr exposed for 24 hr, 50 μM suramin, 10 ng/ml EGF or suramin+EGF
Description: (§1) Isolation and culture of renal proximal tubules: Isolation and culture of renal proximal tubules were performed as described previously (Rodeheaver et al., 1990; Nowak and Schnellmann, 1995; Nowak and Schnellmann, 1996). Female New Zealand White rabbits (1.5-2.5 kg) were purchased from Myrtle's Rabbitry (Thompson Station, Tenn.). RPTC were isolated using the iron oxide perfusion method and grown in 6-well tissue culture dishes under improved conditions. The culture medium was an 1:1 mixture of DMEM/Ham's F-12 (without glucose, phenol red, or sodium pyruvate) supplemented with 15 mM HEPES buffer, 2.5 mM L-glutamine, 1 μM pyridoxine HCl, 15 mM sodium bicarbonate, and 6 mM lactate. Hydrocortisone (50 μM), selenium (5 ng/ml), human transferrin (5 μg/ml) bovine insulin (10 nM) and L-ascorbic acid-2-phosphate (50 μM) were added daily to fresh culture medium.
(§2) Isolated tubules were plated at 1 mg protein/well in a 6-well plate. On day 2, RPTC were incubated in the presence and absence of various pharmacological inhibitors for different time periods as indicated in the figure legends. For some experiments, suramin was added to RPTC on day 3 and then incubated for 24 hr in the presence or absence of various inhibitors before samples were taken.

[2] = system: renal proximal tubule cells (RPTC); experiment: RPTC scattering, fibroblast-like morphology and lamellipodia (bright field, phalloidin staining); conditions: 50 μM suramin or 10 ng/ml EGF, 24 hr, phalloidin staining
Description: as §1, §2
Immunocytochemistry: After various treatments, RPTC were fixed with 10% buffered formalin, washed, permeabilized, and blocked with BSA. […]

[3] = system: renal proximal tubule cells (RPTC); experiment: Cell cycle analysis by flow cytometry: number of RPTC in S-phase; conditions: 24 hr treatment, four days following plating; suramin 50 μM, EGF 10 ng/ml; untreated approximately 20%
Description: as §1
Isolated tubules were plated at 1 mg protein/well in a 6-well plate. On day 2, RPTC were incubated in the presence and absence of various pharmacological inhibitors for different time periods as indicated in the figure legends. […]
Cell cycle analysis: Cell cycle phase was determined using flow cytometry as previously described (Zhuang et al., 2004). Cells were harvested, stained with propidium iodide and the number of cells in S-phase of cell cycle determined.

B1: EGF: Human recombinant EGF (epidermal growth factor) from R & D systems (protein, UniProt P01133 23-1207, looked up)
Pro-epidermal growth factor: PQHWSCPEGTLAGNGNSTCVGPAPFLIFSHGNSIFRIDTEGTNYEQLVVDAGVSVIMDFHYNEKRIYWVDLERQLLQRVFLNGSRQERVCNIEKNVSGMAINWINEEVIWSNQQEGIITVTDMKGNNSHILLSALKYPANVAVDPVERFIFWSSEVAGSLYRADLDGVGVKALLETSEKITAVSLDVLDKRLFWIQYNREGSNSLICSCDYDGGSVHISKHPTQHNLFAMSLFGDRIFYSTWKMKTIWIANKHTGKDMVRINLHSSFVPLGELKVVHPLAQPKAEDDTWEPEQKLCKLRKGNCSSTVCGQDLQSHLCMCAEGYALSRDRKYCEDVNECAFWNHGCTLGCKNTPGSYYCTCPVGFVLLPDGKRCHQLVSCPRNVSECSHDCVLTSEGPLCFCPEGSVLERDGKTCSGCSSPDNGGCSQLCVPLSPVSWECDCFPGYDLQLDEKSCAASGPQPFLLFANSQDIRHMHFDGTDYGTLLSQQMGMVYALDHDPVENKIYFAHTALKWIERANMDGSQRERLIEEGVDVPEGLAVDWIGRRFYWTDRGKSLIGRSDLNGKRSKIITKENISQPRGIAVHPMAKRLFWTDTGINPRIESSSLQGLGRLVIASSDLIWPSGITIDFLTDKLYWCDAKQSVIEMANLDGSKRRRLTQNDVGHPFAVAVFEDYVWFSDWAMPSVMRVNKRTGKDRVRLQGSMLKPSSLVVVHPLAKPGADPCLYQNGGCEHICKKRLGTAWCSCREGFMKASDGKTCLALDGHQLLAGGEVDLKNQVTPLDILSKTRVSEDNITESQHMLVAEIMVSDQDDCAPVGCSMYARCISEGEDATCQCLKGFAGDGKLCSDIDECEMGVPVCPPASSKCINTEGGYVCRCSEGYQGDGIHCLDIDECQLGEHSCGENASCTNTEGGYTCMCAGRLSEPGLICPDSTPPPHLREDDHHYSVRNSDSECPLSHDGYCLHDGVCMYIEALDKYACNCVVGYIGERCQYRDLKWWELRHAGHGQQQKVIVVAVCVVVLVMLLLLSLWGAHYYRTQKLLSKNPKNPYEESSRDVRSRRPADTEDGMSSCPQPWFVVIKEHQDLKNGGQPVAGEDGQAADGSMQPTSWRQEPQLCGMGTEQGCWIPVSSDKGSCPQVMERSFHMPSYGTQTLEGGVEKPHSLLSANPLWQQRALDPPHQMELTQ
modifications: Pro-epidermal growth factor
notes: Human recombinant EGF (epidermal growth factor) from R & D systems
EGF receptor
  EGF receptor phosphorylation (tyrosine 1068): did observe phosphorylated EGF receptor
[1]
  RPTC outgrowth: promoted RPTC outgrowth
[2]
  formation of lamellipodia and intercellular contacts: increased the formation of lamellipodia and decreased intercellular contacts
[3]
  RPTC in S-phase: 32%
